Assay results: US20150258217A1, “Methods of Synthesizing and Using Peg-Like Fluorochromes” (THE GENERAL HOSPITAL CORPORATION, priority 2012, published 2015)

What was measured:
[1] = literature/vendor reference value; cited from earlier work
[2] = Probe volume determination by FPLC (Superdex 75, globular protein standards); assay type: physicochemical
Protocol: Size (volume) was determined by FPLC using an ÄKTA Purifier 10 and Superdex™ 75 10/300 GL column (GE Healthcare Lifesciences) with a running buffer of 0.05 M sodium phosphate, 0.15 M NaCl (0.1% Tween, pH 7.2) and flow rate of 0.5 ml/min. The protein standards (Gel Filtration Calibration Kit LMW, code no. 28-4038-41, GE Healthcare) (0.3 mg/ml, mixture of Aprotinin, Ribonuclease A, Ovalbumin, and Conalbumin) and Blue Dextran 2000 were used. To obtain volumes, Mr (apparent molecular weight based on size exclusion retention) was plotted versus Kav. Kav=(Ve−Vo)/[…], Vt=total volume, Ve=elution volume, Vo=void volume.

[3] = Quantum yield determination; assay type: physicochemical
Protocol: Quantum yields were determined as described in Demas et al., “Measurement of photoluminescence quantum yields. Review”, Journal of Physical Chemistry 75, 991-1024 (1971), and Shao et al., “Facile Synthesis of Monofunctional Pentamethine Carbocyanine Fluorophores. Dyes and pigments: an international journal 90, 119-122 (2011). For IR-783 a reference quantum yield of 0.043 was used (see Li et al., “Synthesis and characterization of glucosamine-bound near-infrared probes for optical imaging”, Organic letters 8, 3623-3626, 2006); for fluorescein a reference quantum yield was […] (see Sjoback et al., “Absorption and florescence properties of fluorescein”, Spectrohimica Acta Part A 51, L7-L21, 1995). For Cy3 a reference quantum yield of 0.31 was used (Luminprobe Inc). For PN(783)'s, excitation was at 730 nm and emission spectra were recorded from 765 nm to 870 nm in PBS and maximum emission used. For PN(545)'s, excitation was at 515 nm and emission spectra were recorded from 538 nm to 700 nm in PBS and maximum emission used. For PN(497)'s, excitation was at 450 nm and emission spectra were recorded from 475 nm to 620 nm in PBS and maximum emission used. Absorbance of each probe was adjusted less than 0.1. Measurements were made in triplicate and are expressed as mean±SD.

[4] = tested on: GFP expressing BT-20 breast carcinoma xenograft; test: Tumor surface fluorescence after peritumoral (DMR) or IV injection; assay type: in vivo, mouse; conditions: BT-20 tumors, 24 hours post injection
Protocol: Day 1, BT-20 cells were planted into 24-well plate at 750,000 cells/well in culture medium (EMEM with 10% FBS). Day 2, the old culture medium was replaced with new culture medium containing lenti-virus (1×10^8 particles/mL) and protamine sulphate (American Pharmaceutical Partners, Los Angelus, Calif.; 10 mg/mL; 1:500 of total volume of medium). Day 3, after 16 hours of transfection, medium was changed to the culture medium (EMEM with 10% FBS). 8 hours later, green cells could be seen via fluorescence microscope.
All animal experiments were approved by the Institutional Review Committee of Massachusetts General Hospital. Female nude mice (25-30 g; 6-8 weeks old; nu/nu; Cox 7, Massachusetts General Hospital, Boston, Mass.) were anesthetized with isoflurane/O2. Tumor cell implantation was performed both sides around the shoulder. 200 μl of cell suspension containing 10^6 cells in Matrigel (BD) was injected subcutaneously. Tumor cells were inoculated for 7 to 10 days.
The diffusion and molecular retention required of the DMR technique with a tumor bearing model were investigated. We peritumorally injected the RGD probe into an animal bearing two GFP expressing BT-20 breast carcinomas and monitored tumor GFP fluorescence and probe fluorescence as a function of time after injection. The non-integrin binding RAD probe was injected into a second animal also bearing two tumors. Overlaying purple probe fluorescence over green GFP yields white. […] Tumor surface fluorescence from both probes was quantified by the use of solution standards.
In FIG. 8a), two animals bearing two tumors were PT injected with the RGD probe or RAD probe as indicated and surface fluorescence images were obtained. […] In FIG. 8b), quantitation of tumor surface fluorescence after injections of the RGD or RAD probes as above. Surface fluorescence was quantified through the use of standard solutions.
To compare the DMR and intravenous (IV) methods, surface fluorescence images of tumor GFP and RGD probe fluorescence were obtained with skin removed, and overlays from the two signals obtained. With both DMR and IV administration, probe fluorescence extended beyond tumor GFP margins to a stromal area beyond the tumor. However, tumor fluorescence was far higher with DMR than IV injection, even though dose was far lower (50 pmoles/mouse by DMR versus 2000 pmoles/mouse by IV).
In FIG. 9a), skin covering GFP-BT-20 tumor was removed. Shown are visible GFP fluorescence, probe (CyAL5.5) fluorescence, and the overlay of GFP and probe fluorescence plus an X-ray image. Green GFP plus purple CyAL5.5 fluorescence yielded a white overlaid image. In FIG. 9b), with DMR or IV, probe fluorescence included a stromal zone of integrin binding surrounding the tumor was seen. […]

[5] = Diffusion and elimination after intramuscular administration (surface fluorescence); assay type: in vivo; conditions: nude mouse, front extremity, 24 hours post injection
Protocol: The diffusion and elimination of the non-integrin binding RAD probe after an intramuscular administration in the front extremity of a nude mouse was visualized. Using surface fluorescence, the probe rapidly diffused through the extremity and shoulder of the mouse, with vascular uptake and renal elimination evident from bladder fluorescence at 4 hours post injection.

[6] = PN and peptide size (volume, diameter) by FPLC gel filtration (Superdex 200, globular protein standards); assay type: physicochemical; conditions: Table 5; globular protein equivalent molecular weight
Protocol: DOTA-Lys-Cys(IR783)-NH2 is then dissolved in DMSO, with 2 equivalents of an NHS ester of PEG and 6 equivalents of DIPEA. The reaction was at room temperature for 5 days. Product was purified by reverse phase HPLC separation. Product molecular weight was by matrix-assisted laser desorption ionization time-of-flight mass spectrometry (MALDI-TOF MS), with product molecular volume by size exclusion FPLC using globular protein standards (GE Healthcare life science AKTApurifier 10).
The mass spec of low molecular weights (MW) were obtained by MS-ESI Micromass (Waters) and high MW molecules were determined through MALDI-TOF analyses at the Tufts University Core Facility. RP-HPLC (Varian ProStar detector and delivery modules) employed an eluant A (0.1% TFA/water) and eluant B (0.1% TFA and 9.9% water in acetonitrile). Probe size (volume) was determined by FPLC using an ÄKTA Purifier 10 and Superdex™ 200 10/300GL column (GE Healthcare) with a running buffer of 0.05 M sodium phosphate, 0.15 M NaCl (0.1% Tween, pH 7.2) and flow rate of 0.8 ml/min. Standards (GE Healthcare) were Ferritin, Ribonuclease A, Carbonic Anhydrase, and Conalbumin and Blue Dextran 2000. To obtain probe volumes, Mr (apparent molecular weight based on size exclusion retention) was plotted versus Kav. Kav=(Ve−Vo)/(Vt−Vo), Vt=total volume, Ve=elution volume, Vo=void volume.
The column was calibrated with globular protein standards, and globular protein equivalent molecular weights (in kDa) were obtained (Table 5, column 5). These were converted to PN diameters in nm using the relationship: Radius in nm=[…] where M is the molecular weight of a globular protein expressed in daltons (see Erickson, “Size and Shape of Protein Molecules at the Nanometer Level Determined by Sedimentation, Gel Filtration, and Electron Microscopy”, Biological Procedures Online 2009, 11(1): 32-50). PN's diameters ranged from 3.0 to 11.8 nm (see FIG. 23a). Using PEG's of 5 kDa and 30 kDa, selected for their low polydispersity, PN's were synthesized using IR-783, Cy3 and Fluorescein (see FIG. 22a) and their sizes determined (see FIGS. 23a, 23b, 23c). With the 5 kDa PEG and these three fluorochromes (see the magenta chromatograms in FIGS. 22a, 23b and 23c) PN diameters were 4.3 nm. With the 30 kDa PEG and these three fluorochromes (blue chromatograms, 23a, 23b, 23c), PN diameters were now 10.0 nm. For reference, the diameter of a 67 kDa albumin determined by this method was 5.4 nm.

[7] = tested on: HT-29, a human colon carcinoma cell line; test: PN and peptide binding to cells (non-specific binding, FACS); assay type: cell-based; conditions: HT-29 cells, 30 min at 37° C., FACS
Protocol: HT-29, a human colon carcinoma cell line, was from the American Tissue Culture Collection and maintained according to their instructions. Cells were seeded on 24-well plates at 5×10^5 cells/well in culture medium (RPMI 1640 with 10% FBS) the day before the assay. The day of assay, medium was removed, wells rinsed twice with DPBS (+Ca, +Mg), and 100 μl of 2% FBS/DPBS (+Ca, +Mg) added. 100 μL of Nanoprobes (2 μM) in DPBS (+Ca, +Mg) was added to cells and incubated for 30 min at 37° C. (Probe concentrations were determined spectrophotometrically (783 nm, extinction coefficient of 314 471 cm^−1 M^−1 for IR-783; 497 nm, extinction coefficient of 68 000 cm^−1 M^−1 for Fluorescein; 545 nm, extinction coefficient of 150 000 cm^−1 M^−1 for Cy3). Cells were detached by Trypsin/EDTA and assayed for fluorescence by FACS (BD 7 laser LSR2 for nanoprobes with IR-783; BD 3 laser LSR2 for nanoprobes with Fluorescein or Cy3).

[8] = tested on: mCherry/HT29 tumor sections; test: Confocal microscopy of tumor sections (tumor retention phase); assay type: in vivo, mouse; conditions: 48 hours post IV injection
Protocol: The mCherry-HT-29 tumor sample was collected at 48 hours post IV injection with PN(497)10.0, and then cryosectioned with thickness of 5 μm. The tumor section was fixed with 4% PFA, mounted with 90% glycerol/10% PBS (at pH 8.5 for best fluorescein fluorescence), and stained with DAPI. Confocal imaging was performed on a Zeiss LSM510 laser scanning confocal microscope (Zeiss Axiophot, Carl Zeiss, Jena, Germany). A 405 nm diode Laser, 488 nm argon laser, and 561 nm diode laser were used for the excitation of DAPI, fluorescein, and mCherry, respectively. A primary dichroic HFT 405/488/561 was used in combination with an LP420 emission filter for DAPI, BP505-530 for fluorescein, and LP575 for mCherry. Images were analyzed with ImageJ64.

In the case of Cy3, the reference quantum yield [1] is given as 0.31.

With “DOTA-Lys(CyAL5.5)-Lys(5 kDa PEG)- βAla -Lys(sPEG-RAD) [Compound 7b]” the “Equiv. Vol.” value ([2]; FPLC, globular protein equivalent volume) was 25 kDa, the “Molecular Volume” value ([2]; Table 3A, tetrapeptides) was 20 kDa and the “Molecular Volume” value ([2]; Table 4, DMR probes) was 20-30 kDa. The “Quantum Yield” value ([3]; Table 3A, CyAL5.5 tetrapeptides) was 0.20, the “Quantum Yield” value ([3]; Table 4, DMR probes) was 0.20 and the “tumor retention of probe fluorescence after peritumoral injection” value [4] was “cleared by 24 hours post injection”. For the same substance, the “clearance from intramuscular injection site” value [5] was “detectable fluorescence was not found”.

For “(DOTA)Lys(PEG30K)-Cys(Cy3) [PN(545)10.0]”, the “Quant. Yield” value ([3]; Table 5, in PBS) was 0.61, the “Volume FPLC” value [6] was 435 kDa and the “Cell NSB (percent of cells with fluorescence higher than unstained cell)” value [7] was 15%. The “cellular localisation in tumor sections” value [8] was “seen in mCherry/HT29 cells”.
